This is an account of results in paper PMC2823527 (The Journal of Biological Chemistry, 2009).

Where two headings read alike, the source gives them in different places.

Sequences and labels used below:
T1: Sgf11 full-length, released from GST (S. cerevisiae, UniProt Q03067 1-99)
T1 sequence (looked up): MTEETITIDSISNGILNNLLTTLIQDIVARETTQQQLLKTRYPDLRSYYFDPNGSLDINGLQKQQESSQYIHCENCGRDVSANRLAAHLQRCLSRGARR

T2: GST-Sac3 753-805 / Cdc31 complex (yeast, UniProt P46674 753-805; P06704 1-161)
T2 sequence (looked up) 1: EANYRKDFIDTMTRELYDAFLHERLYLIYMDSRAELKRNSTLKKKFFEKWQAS
T2 sequence (looked up) 2: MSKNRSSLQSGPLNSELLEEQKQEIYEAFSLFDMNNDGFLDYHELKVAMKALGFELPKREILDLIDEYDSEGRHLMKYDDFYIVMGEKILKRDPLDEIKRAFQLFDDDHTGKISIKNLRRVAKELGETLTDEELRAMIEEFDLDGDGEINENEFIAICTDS

T3: GST-Sac3 723-805 / Cdc31 complex (yeast, UniProt P46674 723-805; P06704 1-161)
T3 sequence (looked up) 1: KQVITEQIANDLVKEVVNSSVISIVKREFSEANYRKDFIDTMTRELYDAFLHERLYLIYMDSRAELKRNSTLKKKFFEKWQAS
T3 sequence (looked up) 2: T2 sequence (looked up) 2

B1: Sgf11-(1-33), released from GST (domain or fragment, S. cerevisiae, UniProt Q03067 1-33, looked up)
chain: MTEETITIDSISNGILNNLLTTLIQDIVARETT
B2: Sgf11-(7-33), released from GST (domain or fragment, S. cerevisiae, UniProt Q03067 7-33, looked up)
chain: TIDSISNGILNNLLTTLIQDIVARETT
B3: Sus1 (natural protein, yeast, UniProt Q6WNK7 1-96, looked up)
chain: MTMDTAQLKSQIQQYLVESGNYELISNELKARLLQEGWVDKVKDLTKSEMNINESTNFTQILSTVEPKALEMVSDSTRETVLKQIREFLEEIVDTQ

Test [1] deals with B3. The test can be described thus: crystal structure.
For test [2], the target named is B3. Nature of the test: crystal structure. The source holds these as a separate data set.
For test [3], the target named is T1, Sgf11 full-length, released from GST. The test can be described thus: SEC. A general note: SEC sorts molecules by how far they enter the pores of the column.
Test [4] addresses T2, GST-Sac3 753-805 / Cdc31 complex. Nature of the test: pull-down.
Test [5] has as its target T3, GST-Sac3 723-805 / Cdc31 complex. The test can be described thus: pull-down.

On to B1, for which the binding result with Sus1 [1] is given as “binds”. As for B2, the binding result with Sus1 [2] is recorded as “binds”. As to B3, the binding result in test [3], in test [4] and in test [5] was “binds” throughout.
